Measurements from US20240165282A1, “CONFORMATIONAL CONSTRAINED SOMATOSTATIN RECEPTOR 3 PEPTIDE LIGANDS AND THEIR CONJUGATES AND USES THEREOF” (STARGET PHARMA LTD., priority 2021, published 2024).
*1 amine or outer side, *2 acyl side, *3 side chain or, on linkers, in order; H or OH if unused. Bridges are numbered along the chain shown (N, C = ends). Where no end group is shown, it is not given here. [ ]: non-standard residue; d: D form. N(2-mercaptoethyl)Gly = O=C(CN(CCS[*:3])[*:1])[*:2]

Set-up: species or system mice
Conditions: mouse, in vivo, iv
Procedure: As described in Example 1 above, the successful substitution of the arginine with lysine which preserved the high affinity selectivity of SEQ ID NO: 2 to SSTR-3 (as depicted in table 3) can improve this analog as a better candidate for radioligand therapy and diagnostic. SEQ ID NO: 4 and SEQ ID NO: 10 are the gallium labeled analogs of SEQ ID NO: 1 and SEQ ID NO: 2 respectively. Following their radiolabeling the radioligand were injected to anesthetized naïve mice by intravenous administration. The mice were subjected to PET-CT imaging aimed to assess the disposition profiles of the radioligands.

radiolabeled SEQ ID NO: 2 ([dF]KCF[dW]KTF[N(2-mercaptoethyl)Gly]-NH2; disulfide 3-9; not fully specified (N-terminus); also: radiolabeled)
clearance from the kidneys: significantly higher clearance of the peptide from the kidneys in comparison to radiolabeled SEQ ID NO: 1
